These results are taken from the supplement of paper PMC9112550, “Optimization of the antimicrobial peptide Bac7 by deep mutational scanning” (BMC Biology, 2022).

This data set relates to Escherichia coli TOP10. In words: shrunken log2 fold change of peptide-encoding DNA abundance (4.5 h post-induction vs induction); higher = less antimicrobial activity (less host growth inhibition). The conditions noted are these: time post-induction: 4.5 h; library: site-saturation at positions 5, 18, 19, 20.
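Also: peptides expressed intracellularly from a pBAD plasmid library in pooled LB shake-flask culture, induced with 0.3% L-arabinose, DNA abundance read by NGS, three biological replicates, DESeq2 with apeglm shrinkage.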

Turning to RRIRYRPPRLPRPRPRPAPKPRP, the “shrunken log2 fold change” value came to 0.207.

In the case of RRIRWRPPRLPRPRPRPRCPPRP, the “shrunken log2 fold change” value turned out to be 0.264.

RRIRPRPPRLPRPRPRPRRNPRP: the “shrunken log2 fold change” value was -0.0266.

As for RRIRMRPPRLPRPRPRPEFDPRP, the “shrunken log2 fold change” value was 2.44.

Take RRIRYRPPRLPRPRPRPPFHPRP: the “shrunken log2 fold change” value was -0.589.

Consider RRIRHRPPRLPRPRPRPVVYPRP, for which the “shrunken log2 fold change” value is -0.186.

For RRIRNRPPRLPRPRPRPKGPPRP, the “shrunken log2 fold change” value was 0.0947.

In the case of RRIRKRPPRLPRPRPRPHHVPRP, the “shrunken log2 fold change” value is -0.348.

On to RRIRWRPPRLPRPRPRPICQPRP, for which the “shrunken log2 fold change” value is -0.146.

Regarding RRIRCRPPRLPRPRPRPWAEPRP, the “shrunken log2 fold change” value is -0.136.

As for RRIRQRPPRLPRPRPRPCMNPRP, the “shrunken log2 fold change” value is -0.0959.

On to RRIRMRPPRLPRPRPRPTCCPRP, for which the “shrunken log2 fold change” value was determined as 0.213.

For the sequence RRIRWRPPRLPRPRPRPEICPRP, the “shrunken log2 fold change” value was 0.127.

With RRIRFRPPRLPRPRPRPRGQPRP, the “shrunken log2 fold change” value was 0.415.

Regarding RRIRFRPPRLPRPRPRPAADPRP, the “shrunken log2 fold change” value came out at 0.0709.

For RRIRARPPRLPRPRPRPIAEPRP, the “shrunken log2 fold change” value was found to be 0.42.

RRIRDRPPRLPRPRPRPVGCPRP: the “shrunken log2 fold change” value was 0.229.

For the sequence RRIRQRPPRLPRPRPRPSSGPRP, the “shrunken log2 fold change” value was -0.0384.

For RRIRFRPPRLPRPRPRPQRMPRP, the “shrunken log2 fold change” value is -0.29.

On to RRIRQRPPRLPRPRPRPRYDPRP, for which the “shrunken log2 fold change” value is -0.0523.

Consider RRIRRRPPRLPRPRPRPFSEPRP, for which the “shrunken log2 fold change” value was -0.0505.

As to RRIRMRPPRLPRPRPRPCFLPRP, the “shrunken log2 fold change” value is -0.117.

Take RRIRFRPPRLPRPRPRPLSWPRP: the “shrunken log2 fold change” value turned out to be 0.245.

As to RRIRGRPPRLPRPRPRPAWAPRP, the “shrunken log2 fold change” value is 0.854.

With RRIRNRPPRLPRPRPRPSHSPRP, the “shrunken log2 fold change” value was -0.182.

Consider RRIRKRPPRLPRPRPRPNSMPRP, for which the “shrunken log2 fold change” value is -0.115.

In the case of RRIRPRPPRLPRPRPRPYINPRP, the “shrunken log2 fold change” value is -0.739.

With RRIRWRPPRLPRPRPRPYLGPRP, the “shrunken log2 fold change” value is -0.616.

As for RRIRTRPPRLPRPRPRPEPHPRP, the “shrunken log2 fold change” value was found to be 0.0668.

RRIRLRPPRLPRPRPRPSYWPRP: the “shrunken log2 fold change” value is -0.651.

As to RRIRPRPPRLPRPRPRPDYNPRP, the “shrunken log2 fold change” value is -0.553.

Take RRIRIRPPRLPRPRPRPYYFPRP: the “shrunken log2 fold change” value is -1.16.

Consider RRIRSRPPRLPRPRPRPGAVPRP, for which the “shrunken log2 fold change” value was found to be 0.324.

As for RRIRTRPPRLPRPRPRPCMPPRP, the “shrunken log2 fold change” value is -0.143.

Take RRIRKRPPRLPRPRPRPMWIPRP: the “shrunken log2 fold change” value was -0.0247.

On to RRIRTRPPRLPRPRPRPVHIPRP, for which the “shrunken log2 fold change” value is -0.149.

Turning to RRIRYRPPRLPRPRPRPILGPRP, the “shrunken log2 fold change” value is -0.00192.

As to RRIRWRPPRLPRPRPRPPHKPRP, the “shrunken log2 fold change” value was 0.339.

On to RRIRRRPPRLPRPRPRPKKYPRP, for which the “shrunken log2 fold change” value is -0.103.

RRIRNRPPRLPRPRPRPSSDPRP: the “shrunken log2 fold change” value is -0.171.

On to RRIRFRPPRLPRPRPRPHKQPRP, for which the “shrunken log2 fold change” value is -0.0759.

As for RRIRKRPPRLPRPRPRPHDPPRP, the “shrunken log2 fold change” value is 0.282.

Take RRIRERPPRLPRPRPRPEKWPRP: the “shrunken log2 fold change” value is -0.0225.

With RRIRFRPPRLPRPRPRPATIPRP, the “shrunken log2 fold change” value is -0.506.

With RRIRQRPPRLPRPRPRPWMLPRP, the “shrunken log2 fold change” value is -0.267.

For the sequence RRIRRRPPRLPRPRPRPYFKPRP, the “shrunken log2 fold change” value is -0.572.

As to RRIRDRPPRLPRPRPRPHHDPRP, the “shrunken log2 fold change” value is -0.336.

With RRIRQRPPRLPRPRPRPMYMPRP, the “shrunken log2 fold change” value is -0.0317.

With RRIRYRPPRLPRPRPRPMNFPRP, the “shrunken log2 fold change” value is -0.0135.

As to RRIRHRPPRLPRPRPRPEVCPRP, the “shrunken log2 fold change” value turned out to be 0.116.

For the sequence RRIRCRPPRLPRPRPRPVWDPRP, the “shrunken log2 fold change” value is -0.107.

Consider RRIRMRPPRLPRPRPRPTHKPRP, for which the “shrunken log2 fold change” value turned out to be 0.275.

On to RRIRKRPPRLPRPRPRPYFTPRP, for which the “shrunken log2 fold change” value is -0.0968.

On to RRIRPRPPRLPRPRPRPMGFPRP, for which the “shrunken log2 fold change” value is -0.0125.

For the sequence RRIRYRPPRLPRPRPRPIKWPRP, the “shrunken log2 fold change” value amounted to 0.0101.

Regarding RRIRRRPPRLPRPRPRPRDWPRP, the “shrunken log2 fold change” value is 1.01.

In the case of RRIRVRPPRLPRPRPRPSRRPRP, the “shrunken log2 fold change” value stood at 0.157.

As to RRIRIRPPRLPRPRPRPKCCPRP, the “shrunken log2 fold change” value is -0.143.

Turning to RRIRCRPPRLPRPRPRPQMLPRP, the “shrunken log2 fold change” value is 0.0498.

Regarding RRIRGRPPRLPRPRPRPSLQPRP, the “shrunken log2 fold change” value stood at 1.07.

On to RRIRQRPPRLPRPRPRPEKWPRP, for which the “shrunken log2 fold change” value is -0.191.

For RRIRQRPPRLPRPRPRPWFPPRP, the “shrunken log2 fold change” value was -0.156.

As to RRIRSRPPRLPRPRPRPHSCPRP, the “shrunken log2 fold change” value was -0.0203.

In the case of RRIRTRPPRLPRPRPRPGPPPRP, the “shrunken log2 fold change” value was 0.404.

Consider RRIRARPPRLPRPRPRPKPDPRP, for which the “shrunken log2 fold change” value was 0.582.

Turning to RRIRIRPPRLPRPRPRPSMTPRP, the “shrunken log2 fold change” value was -0.43.

In the case of RRIRCRPPRLPRPRPRPQYGPRP, the “shrunken log2 fold change” value is -0.142.

RRIRARPPRLPRPRPRPHNEPRP: the “shrunken log2 fold change” value was -0.258.

For the sequence RRIRERPPRLPRPRPRPALHPRP, the “shrunken log2 fold change” value turned out to be 0.247.

As for RRIRRRPPRLPRPRPRPYGDPRP, the “shrunken log2 fold change” value is -0.251.

Regarding RRIRRRPPRLPRPRPRPLIDPRP, the “shrunken log2 fold change” value came to 0.192.

For RRIRDRPPRLPRPRPRPCFVPRP, the “shrunken log2 fold change” value amounted to 0.0784.

Regarding RRIRERPPRLPRPRPRPFHKPRP, the “shrunken log2 fold change” value is -0.355.

In the case of RRIRIRPPRLPRPRPRPRYWPRP, the “shrunken log2 fold change” value amounted to 0.0433.

Take RRIRHRPPRLPRPRPRPADQPRP: the “shrunken log2 fold change” value was found to be 0.0188.

Regarding RRIRPRPPRLPRPRPRPGGKPRP, the “shrunken log2 fold change” value turned out to be 0.12.

On to RRIRARPPRLPRPRPRPYYWPRP, for which the “shrunken log2 fold change” value was -0.77.

Consider RRIRNRPPRLPRPRPRPYTWPRP, for which the “shrunken log2 fold change” value is -0.547.

RRIRMRPPRLPRPRPRPINDPRP: the “shrunken log2 fold change” value was -0.401.

RRIRIRPPRLPRPRPRPCGAPRP: the “shrunken log2 fold change” value is -0.25.

For RRIRRRPPRLPRPRPRPLLYPRP, the “shrunken log2 fold change” value came out at 0.138.

As to RRIRHRPPRLPRPRPRPVRYPRP, the “shrunken log2 fold change” value was -0.551.

As for RRIRYRPPRLPRPRPRPGTRPRP, the “shrunken log2 fold change” value was -0.393.

For the sequence RRIRGRPPRLPRPRPRPWVAPRP, the “shrunken log2 fold change” value is -0.026.

Take RRIRDRPPRLPRPRPRPPHYPRP: the “shrunken log2 fold change” value came out at 0.0761.

Consider RRIRDRPPRLPRPRPRPWFYPRP, for which the “shrunken log2 fold change” value was -0.0139.

As to RRIRPRPPRLPRPRPRPVKEPRP, the “shrunken log2 fold change” value came out at 0.0267.

In the case of RRIRSRPPRLPRPRPRPKSSPRP, the “shrunken log2 fold change” value was -0.176.

Regarding RRIRCRPPRLPRPRPRPWPGPRP, the “shrunken log2 fold change” value was found to be 0.123.

As to RRIRGRPPRLPRPRPRPDNSPRP, the “shrunken log2 fold change” value was determined as 0.0661.

For the sequence RRIRDRPPRLPRPRPRPAKPPRP, the “shrunken log2 fold change” value is 0.419.
